Measurements published in patent publication US20260242735A1 (UNIVERSIT T BASEL, published 2026).
Blank lines part the entries; values can stand above or below the binder they belong to.

Experiments:
human wild-type CD33 [1] = target: T1, human wild-type CD33 (human, UniProt P20138 18-364); test: flow cytometry, Fab at 0.50 ug/ml on HEK293-T cells expressing CD33 against vector alone
T1 construct: also called SIGLEC3; P67
Experimental: (§1) Serial dilutions of each Fab were tested for immunoreactivity against cells expressing wild-type CD33 or vector alone. The optimal screening concentration for the Fabs was determined based on the raw signal values and signal-to-background calculations. Each point represents the mean of four replicates.

human CD33 T356A = target: T2, human CD33 T356A (human, UniProt P20138 18-364); test: alanine scan; flow cytometry, HEK293-T cells expressing the mutant; normalised to WT CD33;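 note: antibodies (IgG or Fab) at doses pre-set by titration on wild-type CD33, duplicate readings with background fluorescence subtracted, mutants made by site-directed alanine substitution (alanine changed to serine)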
T2 construct: Alanine-scan mutant clone of CD33 transiently transfected into HEK293-T cells
Experimental: (§2) An alanine scan on human CD33 was performed to the determine the residues on CD33 that are involved in binding to the antibodies investigated. […] Briefly, a mutation library of CD33 was created by high-throughput, site-directed mutagenesis. Each residue was individually mutated to alanine, with alanine codons mutated to serine. The mutant library was arrayed in 384-well microplates and transiently transfected into HEK293-T. Following transfection, cells were incubated with the indicated antibodies (IgG or Fab) at concentrations pre-determined using an independent immunofluorescence titration curve on wild type CD33. […] Binding of each antibody to each mutant clone was determined in duplicates. For each point, background fluorescence was subtracted from the raw data, which were then normalized to antibody reactivity with wild type CD33.
(§3) Critical residues for antibody binding (outlined in dark grey) were residues whose mutations led to a binding of the test Abs of less than 20%. Additional secondary residues (outlined in light grey) were identified that led to a binding of the test Abs of between 20 and 40% as compared to the wild type CD33.

human CD33 E357A = target: T3, human CD33 E357A (human, UniProt P20138 18-364); test: as above
T3 construct: Alanine-scan mutant clone of CD33 transiently transfected into HEK293-T cells
Experimental: as §2, §3

human CD33 D353A = target: T4, human CD33 D353A (human, UniProt P20138 18-364); test: as above
T4 construct: Alanine-scan mutant clone of CD33 transiently transfected into HEK293-T cells
Experimental: as §2, §3

human CD33 E360A = target: T5, human CD33 E360A (human, UniProt P20138 18-364); test: as above
T5 construct: Alanine-scan mutant clone of CD33 transiently transfected into HEK293-T cells
Experimental: as §2, §3

human CD33 T354A = target: T6, human CD33 T354A (human, UniProt P20138 18-364); test: as above
T6 construct: Alanine-scan mutant clone of CD33 transiently transfected into HEK293-T cells
Experimental: as §2, §3

human CD33 K352A = target: T7, human CD33 K352A (human, UniProt P20138 18-364); test: as above
T7 construct: Alanine-scan mutant clone of CD33 transiently transfected into HEK293-T cells
Experimental: as §2, §3

human CD33 S355A = target: T8, human CD33 S355A (human, UniProt P20138 18-364); test: as above
T8 construct: Alanine-scan mutant clone of CD33 transiently transfected into HEK293-T cells
Experimental: as §2, §3

human CD33 H346A = target: T9, human CD33 H346A (human, UniProt P20138 18-364); test: as above
T9 construct: Alanine-scan mutant clone of CD33 transiently transfected into HEK293-T cells
Experimental: as §2, §3

human CD33 R362A = target: T10, human CD33 R362A (human, UniProt P20138 18-364); test: as above
T10 construct: Alanine-scan mutant clone of CD33 transiently transfected into HEK293-T cells
Experimental: as §2, §3

human CD33 T363A = target: T11, human CD33 T363A (human, UniProt P20138 18-364); test: as above
T11 construct: Alanine-scan mutant clone of CD33 transiently transfected into HEK293-T cells
Experimental: as §2, §3

human CD33 N349A = target: T12, human CD33 N349A (human, UniProt P20138 18-364); test: as above
T12 construct: Alanine-scan mutant clone of CD33 transiently transfected into HEK293-T cells
Experimental: as §2, §3

human CD33 M348A = target: T13, human CD33 M348A (human, UniProt P20138 18-364); test: as above
T13 construct: Alanine-scan mutant clone of CD33 transiently transfected into HEK293-T cells
Experimental: as §2, §3

human CD33 S359A = target: T14, human CD33 S359A (human, UniProt P20138 18-364); test: as above
T14 construct: Alanine-scan mutant clone of CD33 transiently transfected into HEK293-T cells
Experimental: as §2, §3

human CD33 S351A = target: T15, human CD33 S351A (human, UniProt P20138 18-364); test: as above
T15 construct: Alanine-scan mutant clone of CD33 transiently transfected into HEK293-T cells
Experimental: as §2, §3

human CD33 V361A = target: T16, human CD33 V361A (human, UniProt P20138 18-364); test: as above
T16 construct: Alanine-scan mutant clone of CD33 transiently transfected into HEK293-T cells
Experimental: as §2, §3

human CD33 G347A = target: T17, human CD33 G347A (human, UniProt P20138 18-364); test: as above
T17 construct: Alanine-scan mutant clone of CD33 transiently transfected into HEK293-T cells
Experimental: as §2, §3

human CD33 Q364A = target: T18, human CD33 Q364A (human, UniProt P20138 18-363); test: as above
T18 construct: Alanine-scan mutant clone of CD33 transiently transfected into HEK293-T cells
Experimental: as §2, §3

human CD33 Y358A = target: T19, human CD33 Y358A (human, UniProt P20138 18-364); test: as above
T19 construct: Alanine-scan mutant clone of CD33 transiently transfected into HEK293-T cells
Experimental: as §2, §3

human CD33 P350A = target: T20, human CD33 P350A (human, UniProt P20138 18-364); test: as above
T20 construct: Alanine-scan mutant clone of CD33 transiently transfected into HEK293-T cells
Experimental: as §2, §3

human wild-type CD33 [2] = target: T1, human wild-type CD33; test: flow cytometry, Fab at 1.00 ug/ml on HEK293-T cells expressing CD33 against vector alone
Experimental: as §1

T1 sequence (P20138 18-364 limits assumed): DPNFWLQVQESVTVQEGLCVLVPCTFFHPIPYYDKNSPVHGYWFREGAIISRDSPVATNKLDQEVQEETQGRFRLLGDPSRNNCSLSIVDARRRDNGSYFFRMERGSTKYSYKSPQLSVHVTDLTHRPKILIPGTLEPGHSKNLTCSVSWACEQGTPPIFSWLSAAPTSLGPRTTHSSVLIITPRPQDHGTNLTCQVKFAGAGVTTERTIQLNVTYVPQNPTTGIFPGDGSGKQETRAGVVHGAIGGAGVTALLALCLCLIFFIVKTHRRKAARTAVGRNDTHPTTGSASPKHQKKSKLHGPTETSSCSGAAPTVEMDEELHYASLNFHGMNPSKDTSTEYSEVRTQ
T13 sequence (P20138 18-364 M348A limits assumed): as the sequence (P20138 18-364 limits assumed) above, with M331A counted along it
T4 sequence (P20138 18-364 D353A limits assumed): as the sequence (P20138 18-364 limits assumed) above, with D336A counted along it
T6 sequence (P20138 18-364 T354A limits assumed): as the sequence (P20138 18-364 limits assumed) above, with T337A counted along it
T2 sequence (P20138 18-364 T356A limits assumed): as the sequence (P20138 18-364 limits assumed) above, with T339A counted along it
T14 sequence (P20138 18-364 S359A limits assumed): as the sequence (P20138 18-364 limits assumed) above, with S342A counted along it
T5 sequence (P20138 18-364 E360A limits assumed): as the sequence (P20138 18-364 limits assumed) above, with E343A counted along it
T11 sequence (P20138 18-364 T363A limits assumed): as the sequence (P20138 18-364 limits assumed) above, with T346A counted along it
T10 sequence (P20138 18-364 R362A limits assumed): as the sequence (P20138 18-364 limits assumed) above, with R345A counted along it
T9 sequence (P20138 18-364 H346A limits assumed): as the sequence (P20138 18-364 limits assumed) above, with H329A counted along it
T7 sequence (P20138 18-364 K352A limits assumed): as the sequence (P20138 18-364 limits assumed) above, with K335A counted along it
T8 sequence (P20138 18-364 S355A limits assumed): as the sequence (P20138 18-364 limits assumed) above, with S338A counted along it
T17 sequence (P20138 18-364 G347A limits assumed): as the sequence (P20138 18-364 limits assumed) above, with G330A counted along it
T12 sequence (P20138 18-364 N349A limits assumed): as the sequence (P20138 18-364 limits assumed) above, with N332A counted along it
T15 sequence (P20138 18-364 S351A limits assumed): as the sequence (P20138 18-364 limits assumed) above, with S334A counted along it
T16 sequence (P20138 18-364 V361A limits assumed): as the sequence (P20138 18-364 limits assumed) above, with V344A counted along it
T3 sequence (P20138 18-364 E357A limits assumed): as the sequence (P20138 18-364 limits assumed) above, with E340A counted along it
T18 sequence (P20138 18-364 Q364A limits assumed): as the sequence (P20138 18-364 limits assumed) above, with Q347A counted along it
T19 sequence (P20138 18-364 Y358A limits assumed): as the sequence (P20138 18-364 limits assumed) above, with Y341A counted along it
T20 sequence (P20138 18-364 P350A limits assumed): as the sequence (P20138 18-364 limits assumed) above, with P333A counted along it

- Signal:Background (human wild-type CD33 [1]): 17 signal:background ratio
B1: Refmab #5 Fab fragment (Fab, V domains shown)
VH: QVQLVQSGAEVKKPGASVKVSCKASGYTFTNYDINWVRQAPGQGLEWIGWIYPGDGSTKYNEKFKAKATLTADTSTSTAYMELRSLRSDDTAVYYCASGYEDAMDYWGQGTTVTVSS
VL: DIQMTQSPSSLSASVGDRVTINCKASQDINSYLSWFQQKPGKAPKTLIYRANRLVDGVPSRFSGSGSGQDYTLTISSLQPEDFATYYCLQYDEFPLTFGGGTKVEIK

- Mean % WT Binding (human CD33 T356A): 89.3 % WT binding
- Mean % WT Binding (human CD33 E357A): 75.3 % WT binding
- Mean % WT Binding (human CD33 D353A): 74.6 % WT binding
- Mean % WT Binding (human CD33 E360A): 107 % WT binding
- Mean % WT Binding (human CD33 T354A): 84.7 % WT binding
- Mean % WT Binding (human CD33 K352A): 112 % WT binding
- Mean % WT Binding (human CD33 S355A): 126 % WT binding
- Mean % WT Binding (human CD33 H346A): 114 % WT binding
- Mean % WT Binding (human CD33 R362A): 101 % WT binding
- Mean % WT Binding (human CD33 T363A): 90.1 % WT binding
- Mean % WT Binding (human CD33 N349A): 84.9 % WT binding
- Mean % WT Binding (human CD33 M348A): 92.3 % WT binding
- Mean % WT Binding (human CD33 S359A): 87.2 % WT binding
- Mean % WT Binding (human CD33 S351A): 88.9 % WT binding
- Mean % WT Binding (human CD33 V361A): 84.5 % WT binding
- Mean % WT Binding (human CD33 G347A): 104 % WT binding
- Mean % WT Binding (human CD33 Q364A): 107 % WT binding
- Mean % WT Binding (human CD33 Y358A): 97.9 % WT binding
- Mean % WT Binding (human CD33 P350A): 93.8 % WT binding
B2: Refmab #5 (antibody, V domains shown)
VH: B1 VH
VL: B1 VL
notes: Full-length format is human IgG1 Fc silent (PG-LALA); The alanine scan used IgG or Fab

- Signal:Background (human wild-type CD33 [2]): 7 signal:background ratio
B3: Refmab #2 Fab fragment (Fab, V domains shown)
VH: QVQLVQSGAEVKKPGSSVKVSCKASGGTFSDYAISWVRQAPGQGLEWMGRIIPILGVADYAQKFQGRVTITADKSTRTAYMELSSLRSEDTAVYYCARNWADAFDIWGQGTMVTVSS
VL: DIQLTQSPSSLSASVGDRVTITCRASQGISSVLAWYQQKPGKAPKLLIYDASSLESGVPSRFSGSGSGTDFTLTISSLQPEDFATYYCQQFDSSITFGQGTKLEIK
